The target in data set [1] is DesV (SLG_28320 gene product), His-tag fused (Sphingobium sp. SYK-6). Nature of the data set: SEC; Superdex200 10/300GL, 50 mM KH2PO4-K2HPO4 buffer (pH 7.0) with 150 mM NaCl, 0.5 ml/min; native mass estimated and compared with the monomer size.
The next data set has as its system T1, COc1cc(C=O)cc(OC)c1O.
T1 construct: calculated Mr 55,173; dimer 120 kDa
The data set can be described thus: HPLC, Hanes-Woolf plot. In kind it is biochemical, Sphingobium sp. SYK-6. Particulars: 500 μM NAD+, pH 7.0 phosphate buffer, 30 °C. The text has this: (§1) HPLC, Hanes-Woolf plot on DesV (SLG_28320)

The subject of the next data set is T2, COc1cc(C=O)ccc1O.
T2 construct: calculated Mr 55,173; dimer 120 kDa
Nature of the data set: HPLC, Hanes-Woolf plot. The data set is classed as biochemical, Sphingobium sp. SYK-6. Particulars: 500 μM NAD+, pH 7.0 phosphate buffer, 30 °C.
Excerpt: as §1

Data set [2] deals with LigV (vanillin dehydrogenase), His-tag fused (Sphingobium sp. SYK-6). Nature of the data set: SEC; Superdex200 10/300GL, 50 mM KH2PO4-K2HPO4 buffer (pH 7.0) with 150 mM NaCl, 0.5 ml/min; native mass estimated and compared with the monomer size.

As a reminder, the stoichiometry N is the number of molecules, sites or subunits per partner or assembly. The Km is the concentration of substrate that gives half-maximal velocity. A word on the Vmax: it is the top rate of the reaction or transport when substrate is in excess. Usually kcat stands for the number of substrate molecules converted per active site and unit of time at saturation. Usually kcat/Km stands for the second-order rate constant that governs catalysis at low substrate concentration.

Sequence of DesV (SLG_28320) (Sphingobium sp. SYK-6) (chain, as listed by the source): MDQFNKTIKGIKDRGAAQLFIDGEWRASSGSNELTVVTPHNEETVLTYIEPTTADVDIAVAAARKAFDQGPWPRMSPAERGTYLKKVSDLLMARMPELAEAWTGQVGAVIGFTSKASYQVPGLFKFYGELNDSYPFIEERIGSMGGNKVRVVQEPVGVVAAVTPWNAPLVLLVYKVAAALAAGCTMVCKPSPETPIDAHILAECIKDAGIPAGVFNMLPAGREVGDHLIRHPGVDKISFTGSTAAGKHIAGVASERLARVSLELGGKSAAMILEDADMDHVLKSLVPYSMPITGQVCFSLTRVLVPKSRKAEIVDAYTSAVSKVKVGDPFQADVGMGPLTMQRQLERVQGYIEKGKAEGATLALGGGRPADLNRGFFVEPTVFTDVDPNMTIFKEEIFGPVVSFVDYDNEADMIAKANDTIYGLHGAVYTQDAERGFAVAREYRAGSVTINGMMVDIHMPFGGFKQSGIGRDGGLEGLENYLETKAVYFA

Take “DesV (SLG_28320 gene product), His-tag fused (enzyme)”: in data set [1], the stoichiometry N is 2.

Turning to “DesV (SLG_28320) (Sphingobium sp. SYK-6)”, in the data set on COc1cc(C=O)cc(OC)c1O, the Km stood at 0.48 ± 0.03 µM, the Vmax was determined as 1.08 µmol/min/mg, the catalytic constant (kcat) came to 0.99 ± 0.01 s⁻¹ and the specificity constant (kcat/Km) is 2.1e+06 ± 93000 M⁻¹ s⁻¹. Also, in the data set on COc1cc(C=O)ccc1O, the Michaelis-Menten constant (Km) amounted to 0.47 ± 0.04 µM, the Vmax was 0.85 µmol/min/mg, the turnover number (kcat) was found to be 0.79 ± 0.01 s⁻¹ and the kcat/Km was found to be 1.7e+06 ± 140000 M⁻¹ s⁻¹.

For the substance “LigV (vanillin dehydrogenase), His-tag fused (enzyme)”, in data set [2], the stoichiometry N is 4.

The record behind these values is paper PMC5353671, “A bacterial aromatic aldehyde dehydrogenase critical for the efficient catabolism of syringaldehyde” (Scientific Reports, 2017).
